Assay results taken from IntAct's records for PubMed 17289029.

B1: Zinc finger protein GLIS2 (Homo sapiens), Q9BZE0 (parent)
chain: MHSLDEPLDLKLSITKLRAAREKRERTLGVVRPRALHRELGLVDDSPTPGSPGSPPSGFLLNSKFPEKVEGRFSAAPLVDLSLSPPSGLDSPNGSSSLSPERQGNGDLPPVPSASDFQPLRYLDGVPSSFQFFLPLGSGGALHLPASSFLTPPKDKCLSPDLPLPKQLVCRWAKCNQLFELLQDLVDHVNDYHVKPEKDAGYCCHWEGCARHGRGFNARYKMLIHIRTHTNEKPHRCPTCSKSFSRLENLKIHNRSHTGEKPYVCPYEGCNKRYSNSSDRFKHTRTHYVDKPYYCKMPGCHKRYTDPSSLRKHIKAHGHFVSHEQQELLQLRPPPKPPLPAPDGGPYVSGAQIIIPNPAALFGGPGLPGLPLPLAPGPLDLSALACGNGGGSGGGGGMGPGLPGPVLPLNLAKNPLLPSPFGAGGLGLPVVSLLAGAAGGKAEGEKGRGSVPTRALGMEGHKTPLERTESSCSRPSPDGLPLLPGTVLDLSTGVNSAASSPEALAPGWVVIPPGSVLLKPAVVN

Variants of: B1
Details: with ctnb1_human CTNNB1, P35222
Sequence of ctnb1_human CTNNB1, P35222 (P35222 whole entry): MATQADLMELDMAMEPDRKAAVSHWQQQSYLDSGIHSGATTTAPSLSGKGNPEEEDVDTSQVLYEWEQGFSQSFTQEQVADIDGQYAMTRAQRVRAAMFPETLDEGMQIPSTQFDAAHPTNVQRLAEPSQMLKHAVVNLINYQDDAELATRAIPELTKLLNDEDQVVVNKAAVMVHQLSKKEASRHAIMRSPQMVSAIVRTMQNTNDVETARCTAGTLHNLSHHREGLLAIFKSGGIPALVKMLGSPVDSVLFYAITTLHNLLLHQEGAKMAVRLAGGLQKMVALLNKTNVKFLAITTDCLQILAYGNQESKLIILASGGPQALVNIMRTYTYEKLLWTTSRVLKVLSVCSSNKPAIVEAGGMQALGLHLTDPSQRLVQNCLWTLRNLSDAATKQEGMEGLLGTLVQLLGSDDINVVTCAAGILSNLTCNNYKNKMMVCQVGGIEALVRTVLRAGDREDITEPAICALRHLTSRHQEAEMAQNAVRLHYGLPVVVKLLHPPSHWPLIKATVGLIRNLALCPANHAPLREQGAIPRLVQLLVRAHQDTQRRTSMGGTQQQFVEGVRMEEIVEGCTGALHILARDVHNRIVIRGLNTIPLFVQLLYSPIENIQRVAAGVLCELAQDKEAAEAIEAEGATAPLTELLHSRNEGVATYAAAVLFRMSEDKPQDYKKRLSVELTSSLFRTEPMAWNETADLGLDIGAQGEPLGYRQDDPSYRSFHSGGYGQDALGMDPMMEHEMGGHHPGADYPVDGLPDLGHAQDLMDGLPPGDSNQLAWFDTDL

| effect of a mutation on the interaction | Variant |
| --- | --- |
| disrupting interaction | C175A |
